Test results as given in patent US20130224145A1.

Target: Fas on the cell surface of human Jurkat T cell line (human) (UniProt P25445)
Assay: cell-based or functional assay

UniProt P25445, sequence (P25445 26-335): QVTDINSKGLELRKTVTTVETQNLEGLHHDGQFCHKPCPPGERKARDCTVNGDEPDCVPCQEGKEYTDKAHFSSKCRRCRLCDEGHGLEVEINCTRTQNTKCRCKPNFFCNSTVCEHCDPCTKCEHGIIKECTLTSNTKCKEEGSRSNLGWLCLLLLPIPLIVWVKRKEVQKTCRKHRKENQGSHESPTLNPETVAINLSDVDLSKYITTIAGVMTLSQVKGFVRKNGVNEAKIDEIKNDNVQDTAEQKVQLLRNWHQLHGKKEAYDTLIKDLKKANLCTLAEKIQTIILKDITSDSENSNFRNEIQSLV

streptavidin-FasL fusion protein (SAFasL) (from UniProt P48023 103-281) (ligand)
cytotoxicity relative to the anti-Fas antibody: 3 times
dead cells (Propidium Iodide staining of Jurkat T cells after 24 hr): 87%
